Experimental data taken from patent publication US20150098945A1 (Daiichi Sankyo, published 2015).
Residue numbers refer to the chain shown, from its start. Blank lines part the entries; values can stand above or below the binder they belong to.

Target: T1, recombinant human ROBO4 extracellular region polypeptide rROBO4-ECD (human, UniProt Q8WZ75 28-461)
T1 construct: Expressed from pEF6/V5-His-TOPO in FreeStyle 293-F cells; also called human ROBO4-ECD
T1 sequence: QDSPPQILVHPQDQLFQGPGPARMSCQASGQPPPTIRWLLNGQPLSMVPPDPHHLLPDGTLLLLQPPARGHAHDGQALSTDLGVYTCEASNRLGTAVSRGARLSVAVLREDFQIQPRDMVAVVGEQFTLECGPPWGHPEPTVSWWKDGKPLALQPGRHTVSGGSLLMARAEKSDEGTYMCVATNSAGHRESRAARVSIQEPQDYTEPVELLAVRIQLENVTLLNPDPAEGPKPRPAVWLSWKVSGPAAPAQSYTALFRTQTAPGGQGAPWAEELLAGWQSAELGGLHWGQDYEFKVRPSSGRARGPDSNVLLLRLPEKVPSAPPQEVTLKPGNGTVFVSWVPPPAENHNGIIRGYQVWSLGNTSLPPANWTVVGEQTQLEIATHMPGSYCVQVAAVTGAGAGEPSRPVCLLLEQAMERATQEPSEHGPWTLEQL
Assay: SPR (Biacore 3000), antibody captured via anti-human IgG on CM5, rROBO4-ECD as analyte, 1:1 model
Description: The dissociation constant between each antibody and rROBO4-ECD was determined with the antibody immobilized as a ligand and the antigen as an analyte using Biacore 3000 (manufactured by GE Healthcare Bio-Sciences Corp.). Approximately 80 RU of the antibody was bound via an anti-human IgG antibody (manufactured by GE Healthcare Bio-Sciences Corp.) immobilized on a sensor chip CM5 (manufactured by GE Healthcare Bio-Sciences Corp.) by an amine coupling method. The running buffer used was PBS containing 0.05% Surfactant P20. Dilution series solutions (0.1-200 nM) of the antigen were added at a flow rate of 30 μL/min. for 300 seconds onto the antibody-bound chip. Subsequently, a dissociation phase was monitored for 300 seconds. 3 M MgCl₂ was added thereto as a regeneration solution at a flow rate of 10 μL/min. for 30 seconds. Data was analyzed using the 1:1 binding model of analysis software (BIAevaluation Software, version 4.1) to calculate an association rate constant kon, a dissociation rate constant koff, and a dissociation constant (KD; KD=koff/kon).

- Kd: 0.41 nM
B1: humanized MAb1 antibody H-1040 (antibody, human IgG2, kappa, V domains shown)
VH: EVQLVESGGGLVQPGGSLRLSCAASGFTFSTYAMSWVRQAPGKGLEWVATISNGGTYTYYPDSVKGRFTISRDNAKNTLYLQMNSLRAEDTAVYYCARLIYYDYLDYWGQGTLVTVSS
VL: DIVMTQSPLSLPVTLGEPASISCRSSQSLENSNGNTYLNWYLQKPGQSPQLLIYRVSNRFSGVPDRFSGSGSGTDFTLKISRVEAEDVGVYYCLQVTHVPWTFGPGTKVDIKR
notes: Human IgG2 / kappa constant regions; also called hMAb1-H1-type heavy chain + hMAb1-L1-type light chain

- Kd: 0.4 nM
B2: humanized MAb1 antibody H-2040 (antibody, human IgG2, kappa, V domains shown)
VH: B1 VH with G44R
VL: B1 VL
notes: Human IgG2 / kappa constant regions; also called hMAb1-H3-type heavy chain + hMAb1-L1-type light chain
